Tests used:
Factor VIII heavy chain [1] = target: T1, Factor VIII heavy chain (human, UniProt P00451 20-1667, limits assumed); assay: SPR (BIAcore X), moAb216 coupled to CM5 chip, heavy chain in flow, 37 C
T1 construct: only the heavy chain part stood in the assay; also called HCh
Description: (§1) The kinetics of moAb216 interaction with Factor VIII was determined by SPR-based assay using a BIAcore X instrument (Biacore AB, Uppsala, Sweden) as previously reported. moAb216 was covalently coupled to the surface of CM5 chip at a coupling density of up to 5 ng/mm². Binding (association) of the ligand was monitored in the running buffer (10 mM HEPES pH 7.4, 0.1 M NaCl, 1 mM CaCl₂, 0.005% polysorbate 20) for two minutes at a flow rate 20 μl/min. The dissociation of bound ligand was recorded over a two-minute period by replacing the ligand-containing buffer with buffer only. The level of nonspecific binding as a result of ligand binding to the uncoated chip was subtracted from the signal. Reactions were performed at 37° C. The rate constants for association (kₐₛₛₒ) and dissociation (kdiss) were determined by nonlinear regression analysis using the evaluation software provided by Biacore AB. The dissociation constant (Kd) was calculated as kdiss/kₐₛₛₒ.
(§2) Reactions were performed as described under “Materials and Methods”. Parameter values were calculated by nonlinear regression analysis using the evaluation software provided by Biacore AB. ^{#}Values were calculated as kdiss/kₐₛₛₒ. *not determined

Factor VIII light chain = target: T2, Factor VIII light chain (human, UniProt P00451 1668-2351); assay: ELISA: Factor VIII light chain (50 nM) coated on microtiter wells, biotinylated moAb216 added, detected with peroxidase-conjugated streptavidin, absorbance at 492 nm
T2 construct: only the light chain part stood in the assay; also called LCh
T2 sequence: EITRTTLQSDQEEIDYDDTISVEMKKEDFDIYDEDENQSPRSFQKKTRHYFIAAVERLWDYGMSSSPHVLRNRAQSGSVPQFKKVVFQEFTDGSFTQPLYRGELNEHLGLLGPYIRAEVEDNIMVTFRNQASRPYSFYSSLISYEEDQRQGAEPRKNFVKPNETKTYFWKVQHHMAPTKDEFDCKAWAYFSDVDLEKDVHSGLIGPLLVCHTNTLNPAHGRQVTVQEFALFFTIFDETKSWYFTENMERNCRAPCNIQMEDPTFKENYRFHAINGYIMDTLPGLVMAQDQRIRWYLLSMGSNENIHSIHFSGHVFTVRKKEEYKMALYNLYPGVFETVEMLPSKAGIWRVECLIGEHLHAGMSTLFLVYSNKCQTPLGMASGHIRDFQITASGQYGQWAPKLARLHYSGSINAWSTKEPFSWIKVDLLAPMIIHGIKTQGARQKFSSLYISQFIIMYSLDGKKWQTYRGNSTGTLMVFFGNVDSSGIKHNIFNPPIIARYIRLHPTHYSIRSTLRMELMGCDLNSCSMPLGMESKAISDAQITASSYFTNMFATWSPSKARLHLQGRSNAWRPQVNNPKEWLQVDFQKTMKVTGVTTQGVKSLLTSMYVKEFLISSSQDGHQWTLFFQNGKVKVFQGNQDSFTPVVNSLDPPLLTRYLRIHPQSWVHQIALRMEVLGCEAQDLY
Description: (§3) Microtiter wells were coated with Factor VIII or its subunit (50 nM) in 20 mM Tris, and 0.15 M NaCl, pH 7.4, overnight at 4° C. The wells were washed with PBS containing 0.01% Tween 20 and were blocked with PBS containing 5% HSA for two hours at 37° C. The indicated concentrations of biotinylated-moAb216 were then added in 20 mM HEPES, 0.1 M NaCl, 5 mM CaCl₂, and 0.01% Tween 20, pH 7.2 (HBS-buffer) containing 1% HSA for two hours at 37° C. Bound IgG was quantified by the addition of peroxidase-conjugated streptavidin and O-phenylenediamine dihydrochloride substrate. Reactions were stopped by the addition of 2 M H₂SO₄, and absorbance was measured at 492 nm. The amount of nonspecific binding of anti-mouse peroxidase-conjugated IgG in the absence of moAb216 was <5% of the total signal. Specific binding was recorded after subtracting the nonspecific binding.

Factor VIII A2 subunit [2] = target: T3, Factor VIII A2 subunit (human, UniProt P00451 392-759); assay: SPR (BIAcore X), moAb216 coupled to CM5 chip, A2 in flow, 37 C; calculated as kdiss/kasso
T3 construct: only the A2 subunit stood in the assay; also called A2 domain
T3 sequence: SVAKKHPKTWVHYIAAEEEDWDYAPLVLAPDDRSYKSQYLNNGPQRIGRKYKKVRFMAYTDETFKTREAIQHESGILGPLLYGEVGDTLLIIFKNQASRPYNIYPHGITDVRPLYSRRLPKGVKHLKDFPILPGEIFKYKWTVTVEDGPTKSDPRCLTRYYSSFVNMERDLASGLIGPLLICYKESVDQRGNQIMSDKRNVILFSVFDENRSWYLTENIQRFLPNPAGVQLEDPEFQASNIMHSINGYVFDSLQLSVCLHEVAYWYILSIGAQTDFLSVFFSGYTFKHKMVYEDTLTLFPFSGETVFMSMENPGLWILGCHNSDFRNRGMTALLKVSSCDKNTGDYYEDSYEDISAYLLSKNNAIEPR
Description: as §1, §2

[3] = target: T4, recombinant human blood coagulation Factor VIII (Kogenate FS) (human, UniProt P00451 20-2351); assay: SPR (BIAcore X), moAb216 coupled to CM5 chip, Factor VIII in flow, 37 C; calculated as kdiss/kasso
T4 construct: The background describes the protein as a heavy chain/light chain heterodimer and numbers 2,332 residues; the entry may also carry the signal peptide; also called F.VIII
Description: as §1, §2

Factor VIII A2 subunit [4] = target: T3, Factor VIII A2 subunit; assay: SPR (BIAcore X), moAb216 coupled to CM5 chip, A2 in flow, 37 C
Description: as §1, §2

[5] = target: T4, recombinant human blood coagulation …; assay: ELISA: Factor VIII (50 nM) coated on microtiter wells, biotinylated moAb216 added, detected with peroxidase-conjugated streptavidin, absorbance at 492 nm
Description: as §3

[6] = target: T4, recombinant human blood coagulation …; assay: SPR (BIAcore X), moAb216 coupled to CM5 chip, Factor VIII in flow, 37 C
Description: as §1, §2

[7] = target: T4, recombinant human blood coagulation …; assay: cell-based or functional assay
Factor VIII heavy chain [8] = target: T1, Factor VIII heavy chain; assay: ELISA: Factor VIII heavy chain (50 nM) coated on microtiter wells, biotinylated moAb216 added, detected with peroxidase-conjugated streptavidin, absorbance at 492 nm
Description: as §3

Factor VIII A1 subunit = target: T5, Factor VIII A1 subunit (human, UniProt P00451 20-391); assay: ELISA: Factor VIII A1 subunit (50 nM) coated on microtiter wells, biotinylated moAb216 added, detected with peroxidase-conjugated streptavidin, absorbance at 492 nm
T5 construct: only the A1 subunit stood in the assay; also called A1 domain
T5 sequence: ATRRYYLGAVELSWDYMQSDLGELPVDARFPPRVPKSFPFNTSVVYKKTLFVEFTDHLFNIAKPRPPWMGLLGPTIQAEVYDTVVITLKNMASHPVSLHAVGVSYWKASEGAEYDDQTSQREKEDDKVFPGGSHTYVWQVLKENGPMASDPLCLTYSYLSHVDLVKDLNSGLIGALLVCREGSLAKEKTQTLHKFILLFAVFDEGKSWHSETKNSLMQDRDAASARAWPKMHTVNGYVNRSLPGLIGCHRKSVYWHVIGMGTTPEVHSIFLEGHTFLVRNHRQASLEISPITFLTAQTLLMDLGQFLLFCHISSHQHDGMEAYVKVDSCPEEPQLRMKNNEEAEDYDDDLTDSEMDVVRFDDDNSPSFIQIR
Description: as §3

Factor VIII heavy chain [9] = target: T1, Factor VIII heavy chain; assay: SPR (BIAcore X), moAb216 coupled to CM5 chip, heavy chain in flow, 37 C; calculated as kdiss/kasso
Description: as §1, §2

B1: anti-Factor VIII monoclonal antibody moAb216 (antibody, V domains shown)
VH: EVRLVESGGGLVKPGGSLKLSCAASEFTFSSYSMSWVRQTPEKRLEWVASINSGGRTFYPDSVKGRFTISRDNARNILVLQMSSLRSEDTAMYYCARVIYYDYGAYALDYWGQGTSLTVSS
VL: EIVLTQSPALMAAYPGEKVTITCSVSSSISSSNLHWYQQKSETSPKLWIYGTSNLASGVPVRFSGSGSGTSYSLTISSMEAEDAATYYCQQWNIYPLTFGAGTKLELK
notes: It was biotinylated for the ELISAs and coupled covalently to a CM5 chip for SPR; also called moAb216 IgG; biotinylated moAb216
In the case of B1, the koff (Factor VIII heavy chain [1]) is reported as 0.0009 s⁻¹, the kon (Factor VIII heavy chain [1]) is reported as 294000 M⁻¹ s⁻¹ and the binding result (Factor VIII light chain) is reported as “no binding (tested: 1.25 µg/ml)”. For the same binder, the Kd (Factor VIII A2 subunit [2]) was 0.8 nM, the Kd [3] was 1.1 nM and the koff (Factor VIII A2 subunit [4]) was 0.0002 s⁻¹. For the same binder, the kon (Factor VIII A2 subunit [4]) was 238000 M⁻¹ s⁻¹, the “EC50 (read off the curve)” value [5] was roughly 0.08 µg/mL and the koff [6] was 0.001 s⁻¹. The kon [6] was 930000 M⁻¹ s⁻¹, the “percentage of Factor Xa cleavage at Arg372 (A2/A1-A2 ratio, densitometry)” value [7] was no more than 2 times and the “rate of thrombin cleavage at Arg372 (A2 product/A1-A2 substrate ratio, densitometry of Western blot)” value [7] was roughly 2 times. The “EC50 (read off the curve)” value (Factor VIII heavy chain [8]) was roughly 0.09 µg/mL, the binding result (Factor VIII A1 subunit) was “no binding (tested: 1.25 µg/ml)” and the Kd (Factor VIII heavy chain [9]) was 3 nM.

Reference: patent US20090297503A1 (Chugai, published 2009)
